Results from patent US20070128672A1 (ST VINCENT S HOSPITAL SYDNEY, published 2007).

Target: tetanus toxoid (UniProt P04958 2-1315)
Assay: ELISA, crude Fab supernatant, detected with 9E10

Chain of tetanus toxoid (P04958 2-457 limits assumed, chain 1 of 2): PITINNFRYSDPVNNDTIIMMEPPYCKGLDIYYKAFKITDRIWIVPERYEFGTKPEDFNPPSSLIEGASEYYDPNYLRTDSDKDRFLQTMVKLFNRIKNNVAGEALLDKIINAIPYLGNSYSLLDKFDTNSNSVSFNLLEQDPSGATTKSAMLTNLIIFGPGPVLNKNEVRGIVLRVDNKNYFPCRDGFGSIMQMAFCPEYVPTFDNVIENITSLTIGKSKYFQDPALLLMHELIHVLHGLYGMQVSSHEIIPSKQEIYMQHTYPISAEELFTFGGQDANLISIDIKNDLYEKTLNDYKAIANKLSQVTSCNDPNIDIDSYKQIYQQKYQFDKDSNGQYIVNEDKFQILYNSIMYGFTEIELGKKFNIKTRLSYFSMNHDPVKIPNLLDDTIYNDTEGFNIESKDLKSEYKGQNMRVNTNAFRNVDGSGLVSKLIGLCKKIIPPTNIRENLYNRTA
Chain of tetanus toxoid (P04958 458-1315 limits assumed, chain 2 of 2): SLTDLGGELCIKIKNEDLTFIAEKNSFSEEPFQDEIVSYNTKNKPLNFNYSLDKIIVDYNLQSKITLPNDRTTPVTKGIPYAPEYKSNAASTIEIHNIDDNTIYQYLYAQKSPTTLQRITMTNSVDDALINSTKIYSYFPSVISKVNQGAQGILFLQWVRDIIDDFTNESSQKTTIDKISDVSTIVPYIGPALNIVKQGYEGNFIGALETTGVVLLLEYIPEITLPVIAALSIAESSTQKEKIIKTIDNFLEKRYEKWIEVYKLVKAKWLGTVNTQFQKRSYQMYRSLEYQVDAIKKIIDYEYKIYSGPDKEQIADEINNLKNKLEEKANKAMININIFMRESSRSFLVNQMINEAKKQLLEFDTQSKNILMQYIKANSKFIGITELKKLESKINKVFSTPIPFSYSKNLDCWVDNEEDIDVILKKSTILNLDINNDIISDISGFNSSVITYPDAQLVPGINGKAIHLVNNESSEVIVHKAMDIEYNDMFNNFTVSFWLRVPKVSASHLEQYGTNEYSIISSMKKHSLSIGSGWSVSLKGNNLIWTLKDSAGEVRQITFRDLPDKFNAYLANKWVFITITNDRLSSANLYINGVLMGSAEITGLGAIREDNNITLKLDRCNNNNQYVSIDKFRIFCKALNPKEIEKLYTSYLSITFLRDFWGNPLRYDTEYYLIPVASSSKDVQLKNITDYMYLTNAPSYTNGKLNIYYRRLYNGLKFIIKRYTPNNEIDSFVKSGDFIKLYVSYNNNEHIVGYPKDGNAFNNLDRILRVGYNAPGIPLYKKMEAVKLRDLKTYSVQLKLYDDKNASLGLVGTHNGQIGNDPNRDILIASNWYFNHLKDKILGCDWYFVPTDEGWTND

Binder | binding result
Fab clone 163.1 (Fab, V domains shown, myc tag on the C terminus of the heavy chain) VH: VQLLEQSGAEMKRPGASVTISCQASRQTFSGQYIHWVRQAPGQGLEWMGVINPSGGSANYAPSFQGRLSMSRDASTNTVYMKLSSLTSEDTAVYYCLSQALKYWGQGTLVAVSS VL: AAELTQSPDSLAVSLGERATINCKSNQSVLYNSNSKNYLAWYQQKPGQPPKLLIYWASTRESGVPDRFSGSGSGTDFTLTITSLQAEDVAVYYCQQYFSSPYTFGQGTKLEIK | no binding (tested: antigen coated at 1 µg/ml)
Fab clone 163.5 (Fab, V domains shown) VH: VQLLEQSGAEVKRPGASVTISCQASRQDFSGQYIHWVRQAPGQGFEWMGIINPSGGSANYAPKFKGRLTMSRDSSTDTVYMTLTSLTSEDTAVYYCLLQALKHWGQGTLVAVSS VL: AAELTQSPDSLAVALGERATINCKSSQSVLYSLNNKNYLAWYQQKPGQPPKLLIHWASTRESGVPDRFSGSGSETDFTLTISSLQAEDVAVYYCQQYYTTPYTFGQGTKLEIK | no binding (tested: antigen coated at 1 µg/ml)
Fab clone 163.17 (Fab, V domains shown, Human IgG1 kappa Fab (MCO1 vector, soluble from E. coli HB2151), myc tag on the C terminus of the heavy chain) VH: VQLLEQSGAEVKRPGASVTISCRASRQDFSGQYIHWVRQAPGQGFEWMGIINPSGGSANYAPKFKGRLTMSRDSSTETVYMTLTSLTSEDTAVYYCLLQALKHWGQGTLVGPSS VL: not shown | no binding (tested: antigen coated at 1 µg/ml)
Fab clone 163.24 (Fab, V domains shown, Human IgG1 kappa Fab (MCO1 vector, soluble from E. coli HB2151), myc tag on the C terminus of the heavy chain) VH: VQLLEQSGAEVKRPGASVTISCQASRQNFSGQYIHWVRQAPGQGLEWMGIINPSGGSANYAPRFKGRLSMSRDSSTDTAYLTLTSLTSEDTAVYFCLLQSLKHWGQGTLVAVSS VL: not shown | no binding (tested: antigen coated at 1 µg/ml)
